Test results reported in paper PMC7987981, “Molecular characterisation of rare loss-of-function NPAS3 and NPAS4 variants identified in individuals with neurodevelopmental disorders” (Scientific Reports, 2021).

Target: T1, NPAS4 170X-Myc/FLAG (c.508C>T nonsense variant) (human, UniProt Q8IUM7-1 1-169)
T1 sequence (looked up): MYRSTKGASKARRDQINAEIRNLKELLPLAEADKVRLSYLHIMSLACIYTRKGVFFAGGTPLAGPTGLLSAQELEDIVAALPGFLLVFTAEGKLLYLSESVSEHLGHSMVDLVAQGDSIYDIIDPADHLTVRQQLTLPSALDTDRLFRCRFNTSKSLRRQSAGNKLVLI
Assay: cell-based or functional assay

6xCME firefly luciferase reporter gene activity in HEK293T (dual luciferase; ARNT2-FLAG as partner; printed for ARNT and ARNT2 alike): > 200 fold decrease relative to wildtype
B1: ARNT2-Strep (natural protein)
chain: not shown
